Laboratory results from the supplement of paper PMC9112550, “Optimization of the antimicrobial peptide Bac7 by deep mutational scanning” (BMC Biology, 2022).

Test system: Escherichia coli TOP10
Experiment: shrunken log2 fold change of peptide-encoding DNA abundance (4.5 h post-induction vs induction); higher = less antimicrobial activity (less host growth inhibition)
Details: time post-induction: 4.5 h; library: site-saturation at positions 5, 18, 19, 20
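Also: peptides expressed intracellularly from a pBAD plasmid library in pooled LB shake-flask culture, induced with 0.3% L-arabinose, DNA abundance read by NGS, three biological replicates, DESeq2 with apeglm shrinkage.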

| Sequence | shrunken log2 fold change |
| --- | --- |
| RRIRHRPPRLPRPRPRPCSQPRP | -0.00141 |
| RRIRCRPPRLPRPRPRPCMHPRP | -0.0569 |
| RRIRTRPPRLPRPRPRPPVMPRP | -0.113 |
| RRIRFRPPRLPRPRPRPRWGPRP | 0.143 |
| RRIRSRPPRLPRPRPRPRFIPRP | 0.00415 |
| RRIRPRPPRLPRPRPRPFMEPRP | -0.554 |
| RRIRQRPPRLPRPRPRPDARPRP | 0.422 |
| RRIRYRPPRLPRPRPRPSNFPRP | -0.368 |
| RRIRRRPPRLPRPRPRPRAQPRP | 0.5 |
| RRIRPRPPRLPRPRPRPWRKPRP | 0.0228 |
| RRIRGRPPRLPRPRPRPPVPPRP | 0.82 |
| RRIRNRPPRLPRPRPRPLTPPRP | 0.136 |
| RRIRDRPPRLPRPRPRPLITPRP | 0.189 |
| RRIRMRPPRLPRPRPRPPVHPRP | 0.595 |
| RRIRNRPPRLPRPRPRPQFQPRP | 0.0437 |
| RRIRFRPPRLPRPRPRPPNSPRP | -0.544 |
| RRIRTRPPRLPRPRPRPEAGPRP | 0.286 |
| RRIRHRPPRLPRPRPRPQNRPRP | -0.0146 |
| RRIRYRPPRLPRPRPRPSWQPRP | -0.526 |
| RRIRSRPPRLPRPRPRPWEKPRP | -0.01 |
| RRIRGRPPRLPRPRPRPFFHPRP | -0.0568 |
| RRIRNRPPRLPRPRPRPMYSPRP | -0.479 |
| RRIRYRPPRLPRPRPRPHANPRP | -0.16 |
| RRIRGRPPRLPRPRPRPIPNPRP | 0.172 |
| RRIRERPPRLPRPRPRPWVCPRP | 0.0297 |

| Sequence | shrunken log2 fold change |
| --- | --- |
| RRIRSRPPRLPRPRPRPVGTPRP | -0.0487 |
| RRIRPRPPRLPRPRPRPGRCPRP | 0.442 |
| RRIRDRPPRLPRPRPRPQGDPRP | 0.0878 |
| RRIRERPPRLPRPRPRPVHIPRP | -0.202 |
| RRIRWRPPRLPRPRPRPRHDPRP | 0.107 |
| RRIRSRPPRLPRPRPRPDFGPRP | 0.0573 |
| RRIRERPPRLPRPRPRPVWCPRP | -0.156 |
| RRIRDRPPRLPRPRPRPLYPPRP | -0.277 |
| RRIRIRPPRLPRPRPRPAKIPRP | -0.176 |
| RRIRQRPPRLPRPRPRPEGPPRP | 0.172 |
| RRIRERPPRLPRPRPRPMCAPRP | 0.000297 |
| RRIRGRPPRLPRPRPRPISAPRP | 0.363 |
| RRIRPRPPRLPRPRPRPCFSPRP | -0.304 |
| RRIRTRPPRLPRPRPRPKPRPRP | 0.692 |
| RRIRWRPPRLPRPRPRPQMHPRP | 0.0794 |
| RRIRGRPPRLPRPRPRPKETPRP | -0.0578 |
| RRIRQRPPRLPRPRPRPEMWPRP | 0.483 |
| RRIRSRPPRLPRPRPRPETEPRP | 0.997 |
| RRIRWRPPRLPRPRPRPYCSPRP | -0.0518 |
| RRIRGRPPRLPRPRPRPKDAPRP | 0.432 |
| RRIRERPPRLPRPRPRPAILPRP | -0.629 |
| RRIRQRPPRLPRPRPRPIAFPRP | -0.168 |
| RRIRHRPPRLPRPRPRPPDIPRP | -0.0817 |
| RRIRVRPPRLPRPRPRPGWSPRP | 0.434 |
| RRIRNRPPRLPRPRPRPSKIPRP | -0.846 |

| Sequence | shrunken log2 fold change |
| --- | --- |
| RRIRIRPPRLPRPRPRPMKQPRP | -0.0367 |
| RRIRSRPPRLPRPRPRPWCWPRP | 0.0877 |
| RRIRDRPPRLPRPRPRPKEKPRP | -0.0263 |
| RRIRWRPPRLPRPRPRPPGAPRP | 0.904 |
| RRIRMRPPRLPRPRPRPPRAPRP | 1.78 |
| RRIRNRPPRLPRPRPRPVHNPRP | -0.289 |
| RRIRGRPPRLPRPRPRPCTTPRP | 0.141 |
| RRIRCRPPRLPRPRPRPILGPRP | -0.378 |
| RRIRFRPPRLPRPRPRPVRPPRP | 1.18 |
| RRIRWRPPRLPRPRPRPKPMPRP | 0.171 |
| RRIRRRPPRLPRPRPRPMNMPRP | 0.922 |
| RRIRARPPRLPRPRPRPALIPRP | 0.379 |
| RRIRWRPPRLPRPRPRPCLPPRP | -0.341 |
| RRIRIRPPRLPRPRPRPYFAPRP | -0.694 |
| RRIRPRPPRLPRPRPRPQLLPRP | 0.271 |
| RRIRHRPPRLPRPRPRPACGPRP | 0.216 |
| RRIRHRPPRLPRPRPRPWMVPRP | -0.0202 |
| RRIRWRPPRLPRPRPRPFTTPRP | -0.0833 |
| RRIRCRPPRLPRPRPRPVEGPRP | 0.0501 |
| RRIRSRPPRLPRPRPRPWPVPRP | 0.12 |
| RRIRMRPPRLPRPRPRPMFTPRP | 0.0379 |
| RRIRGRPPRLPRPRPRPNMFPRP | 0.351 |
| RRIRIRPPRLPRPRPRPYWIPRP | -0.568 |
| RRIRCRPPRLPRPRPRPMCDPRP | 0.128 |
| RRIRRRPPRLPRPRPRPPCFPRP | 0.741 |

| Sequence | shrunken log2 fold change |
| --- | --- |
| RRIRRRPPRLPRPRPRPDWQPRP | 0.399 |
| RRIRDRPPRLPRPRPRPSNEPRP | -1.13 |
| RRIRRRPPRLPRPRPRPHTAPRP | 0.313 |
| RRIRFRPPRLPRPRPRPQMEPRP | -0.059 |
| RRIRTRPPRLPRPRPRPYGVPRP | 0.0122 |
| RRIRFRPPRLPRPRPRPYIVPRP | -0.97 |
| RRIRCRPPRLPRPRPRPQAWPRP | -0.23 |
| RRIRMRPPRLPRPRPRPFNHPRP | -0.367 |
| RRIRMRPPRLPRPRPRPHEPPRP | -0.0151 |
| RRIRARPPRLPRPRPRPREMPRP | 0.563 |
| RRIRHRPPRLPRPRPRPMFGPRP | -0.000925 |
| RRIRKRPPRLPRPRPRPRRKPRP | 0.969 |
| RRIRQRPPRLPRPRPRPDSQPRP | 0.0234 |
| RRIRTRPPRLPRPRPRPHDTPRP | -0.213 |
| RRIRARPPRLPRPRPRPIIVPRP | -0.226 |
| RRIRIRPPRLPRPRPRPDLHPRP | 0.0268 |
| RRIRWRPPRLPRPRPRPGVSPRP | 0.34 |
| RRIRHRPPRLPRPRPRPFYRPRP | -0.0975 |
| RRIRTRPPRLPRPRPRPYRWPRP | -0.281 |
| RRIRMRPPRLPRPRPRPTNGPRP | -0.0328 |
| RRIRIRPPRLPRPRPRPDVPPRP | -0.372 |
| RRIRKRPPRLPRPRPRPVRQPRP | -0.0361 |
| RRIRHRPPRLPRPRPRPIDHPRP | -0.267 |
| RRIRRRPPRLPRPRPRPYVVPRP | -0.121 |
| RRIRTRPPRLPRPRPRPHFYPRP | -0.224 |

| Sequence | shrunken log2 fold change |
| --- | --- |
| RRIRFRPPRLPRPRPRPAPHPRP | 0.442 |
| RRIRCRPPRLPRPRPRPLMTPRP | -0.0133 |
| RRIRERPPRLPRPRPRPSITPRP | -1.36 |
| RRIRQRPPRLPRPRPRPFTGPRP | -0.0255 |
| RRIRFRPPRLPRPRPRPTYSPRP | -0.209 |
| RRIRGRPPRLPRPRPRPKWPPRP | 0.322 |
| RRIRGRPPRLPRPRPRPMYWPRP | -0.0689 |
| RRIRCRPPRLPRPRPRPDDKPRP | -0.739 |
| RRIRIRPPRLPRPRPRPRWWPRP | 0.655 |
| RRIRKRPPRLPRPRPRPNIWPRP | 0.519 |
| RRIRKRPPRLPRPRPRPIMLPRP | 0.0564 |
| RRIRFRPPRLPRPRPRPNCLPRP | -0.0273 |
| RRIRNRPPRLPRPRPRPMPMPRP | 0.0119 |
| RRIRHRPPRLPRPRPRPSNQPRP | -0.616 |
| RRIRYRPPRLPRPRPRPDLNPRP | -0.0755 |
| RRIRTRPPRLPRPRPRPHMDPRP | -0.422 |
| RRIRHRPPRLPRPRPRPEDIPRP | -0.00674 |
| RRIRVRPPRLPRPRPRPPEEPRP | 0.0908 |
| RRIRERPPRLPRPRPRPWWLPRP | -0.183 |
| RRIRNRPPRLPRPRPRPTMFPRP | -0.247 |
| RRIRQRPPRLPRPRPRPRLYPRP | 0.0786 |
| RRIRPRPPRLPRPRPRPALIPRP | -0.0205 |
| RRIRWRPPRLPRPRPRPPPSPRP | 0.794 |
| RRIRERPPRLPRPRPRPPCDPRP | -0.187 |
| RRIRKRPPRLPRPRPRPYQLPRP | -0.0193 |
